In experiment [1] the target is T1, fibrinogen-like globe (FBG) domain of human tenascin-C (human, UniProt P24821).
T1 construct: tenascin-C, human, fibrinogen-like globe (FBG) domain at the C-terminus; contact residues are numbered A2115 to H2175; the constructs used for SPR, the crystal and the solid phase assay may differ; also called human FBG; recombinant human tenascin-C FBG; source: recombinant
The experiment in a line: SPR; at 37°C; C3 on human and rat FBG; who was immobilised not stated.

In experiment [2] the target is T2, FBG domain of rat tenascin-C (Rattus norvegicus, UniProt A0A8I6AG89).
T2 construct: tenascin-C, rat, fibrinogen-like globe (FBG) domain; Printed only as 'rat antigen'; construct in the supplementary methods; also called rat antigen
The experiment is described as above.

Experiment [3] addresses T1, fibrinogen-like globe (FBG) domain of …. Briefly: ELISA; solid phase binding assay: recombinant human TLR4 coated onto a 96-well plate; recombinant human FBG preincubated with C3 or isotype control antibody was added; bound FBG detected. Conditions: both partners purified.

T1 sequence (P24821 1975-2201): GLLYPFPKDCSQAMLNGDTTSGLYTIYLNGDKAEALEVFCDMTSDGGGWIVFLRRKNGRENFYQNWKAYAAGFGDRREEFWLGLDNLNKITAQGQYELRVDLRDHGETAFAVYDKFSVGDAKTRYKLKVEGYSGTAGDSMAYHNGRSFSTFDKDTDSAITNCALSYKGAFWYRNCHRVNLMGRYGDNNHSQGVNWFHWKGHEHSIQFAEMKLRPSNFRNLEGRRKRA

B1: monoclonal antibody C3 (antibody, V domains shown)
VH: QVQLVESGGGLVQPGRSLRLSCAASGFTFDDYAMHWVRQAPGKGLEWVSGISGSGGSTYYADSVKGRFTISRDNAKNSLYLQMNSLRAEDTALYYCAKSYQSDEDAFDIWGQGTMVTVSS
VL: DIQMTQSPASLPTPVGDRVTITCRASQYIQGFLNWYQQKPGKAPKLLIYDASNLETGVPSRFSGSGSGTDFTLTISSLQPEDFATYYCQQSYSTPQTFGQGTKVDIK
notes: variable part as the heavy chain of m2 (crystal structure solved here, Fab chain B); as the light chain of m2 (crystal structure solved here, Fab chain C); in the solid phase and cell assays it is compared with an isotype control antibody; also called clone C3
With B1, the Kd in experiment [1] was found to be 0.07 nM; in experiment [2], 1.2 nM. For the same molecule, in experiment [3], the IC50 amounted to 45.6 nM.

(Values after publication PMC6352652, “Targeting early changes in the synovial microenvironment: a new class of immunomodulatory therapy?” (Annals of the Rheumatic Diseases, 2018).)
